From the Human Domainome abundance scans (Beltran et al. 2025)
± gives the uncertainty stated by the source.

B1: Neutrophil cytosol factor 2, residues 456 to 514; numbered along this chain, P19878 (parent)
chain: LKKGSQVEALFSYEATQPEDLEFQEGDIILVLSKVNEEWLEGECKGKVGIFPKVFVEDC

Variants of: B1
Test: abundance fitness (aPCA) (normalised: wild type 0, dead -1); higher = more abundant; growth selection in yeast, the domain comes from the species named
Conditions: Homo sapiens

In order of falling abundance fitness:
1. LKKGSQVVALFSYEATQPEDLEFQEGDIILVLSKVNEEWLEGECKGKVGIFPKVFVEDC  0.959 ± 0.091
2. LKKGSQVEALFSYEATQPEHLEFQEGDIILVLSKVNEEWLEGECKGKVGIFPKVFVEDC  0.904 ± 0.074
3. LKKGSQVEALFSYEATQPEDLEFQEGDIINVLSKVNEEWLEGECKGKVGIFPKVFVEDC  0.756 ± 0.083
4. LKKGSQVIALFSYEATQPEDLEFQEGDIILVLSKVNEEWLEGECKGKVGIFPKVFVEDC  0.744 ± 0.2
5. LKKGSQVEALFSYEATQPEDLEFQEGDIIRVLSKVNEEWLEGECKGKVGIFPKVFVEDC  0.552 ± 0.07
6. LKKGSQVEALFSYEATGPEDLEFQEGDIILVLSKVNEEWLEGECKGKVGIFPKVFVEDC  0.478 ± 0.067
7. LKKGSQVEALFSYEATQPEDLEFQEGDIIHVLSKVNEEWLEGECKGKVGIFPKVFVEDC  0.448 ± 0.12
8. LKKGSLVEALFSYEATQPEDLEFQEGDIILVLSKVNEEWLEGECKGKVGIFPKVFVEDC  0.437 ± 0.095
9. LKKGSQVLALFSYEATQPEDLEFQEGDIILVLSKVNEEWLEGECKGKVGIFPKVFVEDC  0.433 ± 0.1
10. LKKGSQVEALFSYEATQPEDLEFQEGDIILVLSKVNEEWLEGECKGKKGIFPKVFVEDC  0.295 ± 0.19
11. LKKGSQVEALFSYEATQPEDLEFQEGDIILVLSKVNEEWLLGECKGKVGIFPKVFVEDC  0.275 ± 0.083
12. LKKGSQVEALFSYEATQPEDLEFQEGDIILVLSKVNEEWLEGECKGKVGIFPKVFVSDC  0.271 ± 0.078
13. LKKGSQVEALFSYEATQPEDLEFQEGDIILVLSKVNEEWLRGECKGKVGIFPKVFVEDC  0.131 ± 0.083
14. LKKGSQVTALFSYEATQPEDLEFQEGDIILVLSKVNEEWLEGECKGKVGIFPKVFVEDC  0.126 ± 0.25
15. LKKGSQVEALFSYEATQPEDLEFQEGDIILVLSKVNEEWLEGECKGKVGPFPKVFVEDC  0.096 ± 0.24
16. LKKGSQVEALFSYEATQPEQLEFQEGDIILVLSKVNEEWLEGECKGKVGIFPKVFVEDC  0.093 ± 0.14
17. LKKGSQVEALFSYEATQPEDLEFQEGDIILVLSKVNEEWLEGECKGKVGIFPKVFVEDA  0.057 ± 0.21
18. LKKGSQVEARFSYEATQPEDLEFQEGDIILVLSKVNEEWLEGECKGKVGIFPKVFVEDC  0.046 ± 0.17
19. LKMGSQVEALFSYEATQPEDLEFQEGDIILVLSKVNEEWLEGECKGKVGIFPKVFVEDC  -0.005 ± 0.36
20. GKKGSQVEALFSYEATQPEDLEFQEGDIILVLSKVNEEWLEGECKGKVGIFPKVFVEDC  -0.053 ± 0.19
21. LKKGSQVEALFSYEATQPEDLEFQEGDIILVLVKVNEEWLEGECKGKVGIFPKVFVEDC  -0.091 ± 0.081
22. LKKGSQVEALFSYEATQPCDLEFQEGDIILVLSKVNEEWLEGECKGKVGIFPKVFVEDC  -0.112 ± 0.087
23. LKKGSQVEALFSYEATQPEDLEFQEGDIILVFSKVNEEWLEGECKGKVGIFPKVFVEDC  -0.118 ± 0.12
24. LKKGSQVEALFSYEATQPEDLEFQEGDINLVLSKVNEEWLEGECKGKVGIFPKVFVEDC  -0.119 ± 0.11
25. LKKGSQVEALFSYEATQPEDLEFQEGDIILVLSKVNEEWLEGECKGKVGIFPKVTVEDC  -0.133 ± 0.18
26. LKKGSQVEALFSYEATQPEDLEFQEGDIILVLSKVNEEWLEGECKGKVGIFPKVPVEDC  -0.145 ± 0.25
27. LKFGSQVEALFSYEATQPEDLEFQEGDIILVLSKVNEEWLEGECKGKVGIFPKVFVEDC  -0.153 ± 0.28
28. LKKGSQVEALFSYEATQPEPLEFQEGDIILVLSKVNEEWLEGECKGKVGIFPKVFVEDC  -0.162 ± 0.15
29. LKKGSQVEALFSYEATQPEDLEFQEGDIILVLSKVNEEWLEGECKGKVGIFPKVFVVDC  -0.198 ± 0.12
30. LKKGSQVEALFSYEATQPEALEFQEGDIILVLSKVNEEWLEGECKGKVGIFPKVFVEDC  -0.198 ± 0.12
31. LKKGSQVEALFNYEATQPEDLEFQEGDIILVLSKVNEEWLEGECKGKVGIFPKVFVEDC  -0.206 ± 0.1
32. LKKGSQVEALFSYEATQPEDLPFQEGDIILVLSKVNEEWLEGECKGKVGIFPKVFVEDC  -0.225 ± 0.21
33. LKKGSQVEALFSYEATQPEDLEFQEGDIILVLSKVNEEWLEGEAKGKVGIFPKVFVEDC  -0.241 ± 0.13
34. LKKGSQVEALFSYEATQPEDLEFQEGDIILVLSKVNEEWLEGECKGKVGIFPKVFVEDN  -0.242 ± 0.18
35. LKKGSQVEALFSYEATQPEDLEFQEGDIILVLSKVNEEWLSGECKGKVGIFPKVFVEDC  -0.28 ± 0.1
36. LKKGIQVEALFSYEATQPEDLEFQEGDIILVLSKVNEEWLEGECKGKVGIFPKVFVEDC  -0.299 ± 0.3
37. LKKGSQVEALFSYEATQPEDLEFQEGDIILVLSKVNEAWLEGECKGKVGIFPKVFVEDC  -0.329 ± 0.13
38. LKKGSQVEALTSYEATQPEDLEFQEGDIILVLSKVNEEWLEGECKGKVGIFPKVFVEDC  -0.347 ± 0.27
39. LKKGSQVEALFSYEATQPEDLEFQEGDIILFLSKVNEEWLEGECKGKVGIFPKVFVEDC  -0.354 ± 0.13
40. LKKGSQVEALFSYEATQPEDLEFQEGDIILVLSAVNEEWLEGECKGKVGIFPKVFVEDC  -0.359 ± 0.13
41. LKKGSQVEALFSYEAVQPEDLEFQEGDIILVLSKVNEEWLEGECKGKVGIFPKVFVEDC  -0.36 ± 0.098
42. LKKGSQVEALFSYECTQPEDLEFQEGDIILVLSKVNEEWLEGECKGKVGIFPKVFVEDC  -0.362 ± 0.13
43. LKKGSQVEALFSYEATQPEDLEFQEGDIILVLSKVNEECLEGECKGKVGIFPKVFVEDC  -0.379 ± 0.099
44. LKKGSQVEALFSYEATQPEDLEFQEGDIILVLSKVNEEWLEGECKGKVGIFPKVDVEDC  -0.409 ± 0.18
45. LKKGSQVEWLFSYEATQPEDLEFQEGDIILVLSKVNEEWLEGECKGKVGIFPKVFVEDC  -0.432 ± 0.29
46. LKKGSQVEALFSYEATQPEDLEFQEGDIILVLSLVNEEWLEGECKGKVGIFPKVFVEDC  -0.436 ± 0.14
47. LKKGSQVEALFSYEARQPEDLEFQEGDIILVLSKVNEEWLEGECKGKVGIFPKVFVEDC  -0.457 ± 0.14
48. LKKGSQVEALFSYEATQPEDLEFQEGDIILVLSFVNEEWLEGECKGKVGIFPKVFVEDC  -0.459 ± 0.13
49. LKKGSQVEALFSYEATQPEDLEFQEGDIILVLSKVNEEWLEGECKGKVGIFPKVFWEDC  -0.46 ± 0.27
50. LKKGSQVEALFSYEATQPEDLEFQEGDIILVLSRVNEEWLEGECKGKVGIFPKVFVEDC  -0.47 ± 0.12
51. LKYGSQVEALFSYEATQPEDLEFQEGDIILVLSKVNEEWLEGECKGKVGIFPKVFVEDC  -0.479 ± 0.37
52. LKKGSQVEALFSWEATQPEDLEFQEGDIILVLSKVNEEWLEGECKGKVGIFPKVFVEDC  -0.484 ± 0.26
53. LKKGSQVEALFSYEATQPEDLEFQEGDIILVLSKVNEEWLEGECKGKVGIFPKVGVEDC  -0.486 ± 0.12
54. LKKGSQVEALFSYEATEPEDLEFQEGDIILVLSKVNEEWLEGECKGKVGIFPKVFVEDC  -0.504 ± 0.3
55. LKKGSQVEALFSAEATQPEDLEFQEGDIILVLSKVNEEWLEGECKGKVGIFPKVFVEDC  -0.505 ± 0.21
56. LKKGSQVEALFSYEATQPEDLEFQEGDIIWVLSKVNEEWLEGECKGKVGIFPKVFVEDC  -0.513 ± 0.33
57. LKKGSQVEALFSYEATQPEDLEFQEGDIILVLSKVNEEWLEGRCKGKVGIFPKVFVEDC  -0.521 ± 0.15
58. LKKGSQVEMLFSYEATQPEDLEFQEGDIILVLSKVNEEWLEGECKGKVGIFPKVFVEDC  -0.532 ± 0.34
59. LKKGSQVEALFSYEATQPEDLEFLEGDIILVLSKVNEEWLEGECKGKVGIFPKVFVEDC  -0.535 ± 0.17
60. LKKGSQVEALFSYEATQPEDLEFQEGDIILVLPKVNEEWLEGECKGKVGIFPKVFVEDC  -0.554 ± 0.2
61. LKKGSQVEALFSYEATQPEDLEFQEGDIILVLSKVNEEWLEGECKGKVGIFKKVFVEDC  -0.559 ± 0.33
62. LKKGSQVEALFSYEATQPEDLEFQEGDIILVLSKVNEEWLEGECKGKVGINPKVFVEDC  -0.584 ± 0.13
63. LKKGSQVEALFSYEATQPEDLEFQEGDIILVLSKVNEEWLEGECKGKVGIFPKVKVEDC  -0.584 ± 0.37
64. LKKGSQVEALFSYEATQPEDLEFQEGDIILVLSKVNEEWLEGECKGKVGIFPKVFVFDC  -0.607 ± 0.18
65. LKKGSQVEALFSYEATQPEDLEFQEGDIILVLSKVNEEWLEGECKIKVGIFPKVFVEDC  -0.615 ± 0.15
66. LKKGSQVEALFSYEATQPEDLEFQEGDIILVLSKVNLEWLEGECKGKVGIFPKVFVEDC  -0.645 ± 0.15
67. LKKGSQVEALFSYEATQPEDLEFQEGDIILVLSKVNEKWLEGECKGKVGIFPKVFVEDC  -0.649 ± 0.31
68. LKKGSQGEALFSYEATQPEDLEFQEGDIILVLSKVNEEWLEGECKGKVGIFPKVFVEDC  -0.67 ± 0.27
69. LKKGSQVEALFSYEATQPEDREFQEGDIILVLSKVNEEWLEGECKGKVGIFPKVFVEDC  -0.67 ± 0.15
70. LKKGSQVEALFSYEATQPEDLEFQIGDIILVLSKVNEEWLEGECKGKVGIFPKVFVEDC  -0.68 ± 0.23
71. LKKGSQVEALFSYEATQPEDLEFQEDDIILVLSKVNEEWLEGECKGKVGIFPKVFVEDC  -0.683 ± 0.25
72. LKKGSQVEALFSYEATQPEKLEFQEGDIILVLSKVNEEWLEGECKGKVGIFPKVFVEDC  -0.683 ± 0.38
73. LKKGSQVERLFSYEATQPEDLEFQEGDIILVLSKVNEEWLEGECKGKVGIFPKVFVEDC  -0.688 ± 0.23
74. LKKGSQVEALFSYEATQPEDLEFQEGDIILVLSKVNEEWLEGECKGKVGIFPKVFVEFC  -0.718 ± 0.21
75. LKKGSGVEALFSYEATQPEDLEFQEGDIILVLSKVNEEWLEGECKGKVGIFPKVFVEDC  -0.72 ± 0.27
76. LKKGSQVEALFSYEATQPEDLEFQEGDIILVLSKVNEEWLEGECKGKVGIFPYVFVEDC  -0.722 ± 0.18
77. LKKGSQVEALFSYEATQPEDLEFQLGDIILVLSKVNEEWLEGECKGKVGIFPKVFVEDC  -0.731 ± 0.17
78. LKKGSQVEALFSYEATQPEDLEFQEGDIILVLSKVNEETLEGECKGKVGIFPKVFVEDC  -0.735 ± 0.19
79. LKKGSQVEALFSYEATQPEDLEFQEGDIILVLSKVNEEWLEGECKGKVGIFYKVFVEDC  -0.738 ± 0.21
80. LKKGSQVEALFSYEATQPEDLEFQEGDIILVLSKVNEELLEGECKGKVGIFPKVFVEDC  -0.8 ± 0.14
81. LKKGSQIEALFSYEATQPEDLEFQEGDIILVLSKVNEEWLEGECKGKVGIFPKVFVEDC  -0.805 ± 0.4
82. LKKGSQVEALFSYEATQPEDLEFQEGDIILVLSKVNEEWLEGEHKGKVGIFPKVFVEDC  -0.806 ± 0.19
83. LKKGSQVEALFSYEATQPEDLEFQEGDIILVLSGVNEEWLEGECKGKVGIFPKVFVEDC  -0.822 ± 0.17
84. LKKGSQVEALFSYEATQPEDLEFQEGDIILVLSKVNEEWLEGECKGQVGIFPKVFVEDC  -0.856 ± 0.41
85. LKKGSQVEALFSYEATQPEDLEWQEGDIILVLSKVNEEWLEGECKGKVGIFPKVFVEDC  -0.889 ± 0.37
86. LKKYSQVEALFSYEATQPEDLEFQEGDIILVLSKVNEEWLEGECKGKVGIFPKVFVEDC  -0.89 ± 0.45
87. LKKGSQVEALFSYEATQPEDLEFQEGDIILVLSKVNEEWLEGECPGKVGIFPKVFVEDC  -0.904 ± 0.28
88. LKKGSQVEALFSYEATQPEDLEFQEGDIILVLSKVNEEWLEGECEGKVGIFPKVFVEDC  -0.905 ± 0.49
89. LKKGSPVEALFSYEATQPEDLEFQEGDIILVLSKVNEEWLEGECKGKVGIFPKVFVEDC  -0.924 ± 0.37
90. LKKGSQVEALFSYEATQPEDLEFQEGDIILVLSKVNEEWLEGECKGKVVIFPKVFVEDC  -1.05 ± 0.18
